Results on one molecule are retold here after PMC9259572.

For this test, the target named is full-length epidermal growth factor receptor (EGFR) with a SNAP tag at the C-terminal position, embedded in a lipid bilayer nanodisc (UniProt P00533).

B1: Human epigen (ligand)
chain: AAVTVTPPITAQQGNWTVNKTEADNIEGPIALKFSHLCLEDHNSYCINGACAFHHELEKAICRCFTGYTGERCEHLTLTSYAVDSYEKYIAIGIGVGLLLSGFLVIFYCYIRKRCLKLKSPYNVCSGERRPL
For B1, the smFRET donor fluorescence lifetime of WT EGFR in nanodiscs (both bilayers) with 1 μM epigen; peak of the distribution worked out at 1.5 ns.
